Source: patent US20220411529A1 (Genmab, published 2022)

Target: FcγRIIIa (V158 high affinity allotype) (UniProt P08637 17-254, limits assumed)
Test: cell-based or functional assay

Sequence of FcγRIIIa (V158 high affinity allotype) (P08637 17-254 F176V limits assumed): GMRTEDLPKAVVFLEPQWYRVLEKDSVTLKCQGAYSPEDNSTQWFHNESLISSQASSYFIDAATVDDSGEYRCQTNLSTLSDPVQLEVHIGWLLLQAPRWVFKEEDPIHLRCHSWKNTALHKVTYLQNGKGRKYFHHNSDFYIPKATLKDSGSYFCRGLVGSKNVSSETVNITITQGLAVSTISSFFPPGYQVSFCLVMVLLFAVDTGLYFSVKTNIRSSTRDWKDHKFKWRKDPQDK

FcγRIIIa activation, reporter cell assay, relative AUC, single agent | Binder
< 5 % of the level induced by the positive control mixture | IgG2-CAMPATH-1H-E345R-K439E (antibody) heavy: QVQLQESGPGLVRPSQTLSLTCTVSGFTFTDFYMNWVRQPPGRGLEWIGFIRDKAKGYTTEYNPSVKGRVTMLVDTSKNQFSLRLSSVTAADTAVYYCAREGHTAAPFDYWGQGSLVTVSSASTKGPSVFPLAPCSRSTSESTAALGCLVKDYFPEPVTVSWNSGALTSGVHTFPAVLQSSGLYSLSSVVTVPSSNFGTQTYTCNVDHKPSNTKVDKTVERKCCVECPPCPAPPVAGPSVFLFPPKPKDTLMISRTPEVTCVVVDVSHEDPEVQFNWYVDGVEVHNAKTKPREEQFNSTFRVVSVLTVVHQDWLNGKEYKCKVSNKGLPAPIEKTISKTKGQPRRPQVYTLPPSREEMTKNQVSLTCLVKGFYPSDIAVEWESNGQPENNYKTTPPMLDSDGSFFLYSKLTVDKSRWQQGNVFSCSVMHEALHNHYTQESLSLSPGK light: not shown
< 5 % of the level induced by the positive control mixture | IgG2-CAMPATH-1H-E345R-K439E-N297A (antibody) heavy: QVQLQESGPGLVRPSQTLSLTCTVSGFTFTDFYMNWVRQPPGRGLEWIGFIRDKAKGYTTEYNPSVKGRVTMLVDTSKNQFSLRLSSVTAADTAVYYCAREGHTAAPFDYWGQGSLVTVSSASTKGPSVFPLAPCSRSTSESTAALGCLVKDYFPEPVTVSWNSGALTSGVHTFPAVLQSSGLYSLSSVVTVPSSNFGTQTYTCNVDHKPSNTKVDKTVERKCCVECPPCPAPPVAGPSVFLFPPKPKDTLMISRTPEVTCVVVDVSHEDPEVQFNWYVDGVEVHNAKTKPREEQFASTFRVVSVLTVVHQDWLNGKEYKCKVSNKGLPAPIEKTISKTKGQPRRPQVYTLPPSREEMTKNQVSLTCLVKGFYPSDIAVEWESNGQPENNYKTTPPMLDSDGSFFLYSKLTVDKSRWQQGNVFSCSVMHEALHNHYTQESLSLSPGK light: not shown
< 5 % of the level induced by the positive control mixture | IgG4-CAMPATH-1H-E345R-K439E (antibody) heavy: QVQLQESGPGLVRPSQTLSLTCTVSGFTFTDFYMNWVRQPPGRGLEWIGFIRDKAKGYTTEYNPSVKGRVTMLVDTSKNQFSLRLSSVTAADTAVYYCAREGHTAAPFDYWGQGSLVTVSSASTKGPSVFPLAPCSRSTSESTAALGCLVKDYFPEPVTVSWNSGALTSGVHTFPAVLQSSGLYSLSSVVTVPSSSLGTKTYTCNVDHKPSNTKVDKRVESKYGPPCPSCPAPEFLGGPSVFLFPPKPKDTLMISRTPEVTCVVVDVSQEDPEVQFNWYVDGVEVHNAKTKPREEQFNSTYRVVSVLTVLHQDWLNGKEYKCKVSNKGLPSSIEKTISKAKGQPRRPQVYTLPPSQEEMTKNQVSLTCLVKGFYPSDIAVEWESNGQPENNYKTTPPVLDSDGSFFLYSRLTVDKSRWQEGNVFSCSVMHEALHNHYTQESLSLSLGK light: not shown
< 5 % of the level induced by the positive control mixture | IgG4-CAMPATH-1H-E345R-K439E-N297A (antibody) heavy: QVQLQESGPGLVRPSQTLSLTCTVSGFTFTDFYMNWVRQPPGRGLEWIGFIRDKAKGYTTEYNPSVKGRVTMLVDTSKNQFSLRLSSVTAADTAVYYCAREGHTAAPFDYWGQGSLVTVSSASTKGPSVFPLAPCSRSTSESTAALGCLVKDYFPEPVTVSWNSGALTSGVHTFPAVLQSSGLYSLSSVVTVPSSSLGTKTYTCNVDHKPSNTKVDKRVESKYGPPCPSCPAPEFLGGPSVFLFPPKPKDTLMISRTPEVTCVVVDVSQEDPEVQFNWYVDGVEVHNAKTKPREEQFASTYRVVSVLTVLHQDWLNGKEYKCKVSNKGLPSSIEKTISKAKGQPRRPQVYTLPPSQEEMTKNQVSLTCLVKGFYPSDIAVEWESNGQPENNYKTTPPVLDSDGSFFLYSRLTVDKSRWQEGNVFSCSVMHEALHNHYTQESLSLSLGK light: not shown
< 5 % of the level induced by the positive control mixture | IgG2-11B8-E345R-S440K (antibody) heavy: EVQLVQSGGGLVHPGGSLRLSCTGSGFTFSYHAMHWVRQAPGKGLEWVSIIGTGGVTYYADSVKGRFTISRDNVKNSLYLQMNSLRAEDMAVYYCARDYYGAGSFYDGLYGMDVWGQGTTVTVSSASTKGPSVFPLAPCSRSTSESTAALGCLVKDYFPEPVTVSWNSGALTSGVHTFPAVLQSSGLYSLSSVVTVPSSNFGTQTYTCNVDHKPSNTKVDKTVERKCCVECPPCPAPPVAGPSVFLFPPKPKDTLMISRTPEVTCVVVDVSHEDPEVQFNWYVDGVEVHNAKTKPREEQFNSTFRVVSVLTVVHQDWLNGKEYKCKVSNKGLPAPIEKTISKTKGQPRRPQVYTLPPSREEMTKNQVSLTCLVKGFYPSDIAVEWESNGQPENNYKTTPPMLDSDGSFFLYSKLTVDKSRWQQGNVFSCSVMHEALHNHYTQKKLSLSPGK light: not shown
< 5 % of the level induced by the positive control mixture | IgG2-11B8-E345R-S440K-N297A (antibody) heavy: EVQLVQSGGGLVHPGGSLRLSCTGSGFTFSYHAMHWVRQAPGKGLEWVSIIGTGGVTYYADSVKGRFTISRDNVKNSLYLQMNSLRAEDMAVYYCARDYYGAGSFYDGLYGMDVWGQGTTVTVSSASTKGPSVFPLAPCSRSTSESTAALGCLVKDYFPEPVTVSWNSGALTSGVHTFPAVLQSSGLYSLSSVVTVPSSNFGTQTYTCNVDHKPSNTKVDKTVERKCCVECPPCPAPPVAGPSVFLFPPKPKDTLMISRTPEVTCVVVDVSHEDPEVQFNWYVDGVEVHNAKTKPREEQFASTFRVVSVLTVVHQDWLNGKEYKCKVSNKGLPAPIEKTISKTKGQPRRPQVYTLPPSREEMTKNQVSLTCLVKGFYPSDIAVEWESNGQPENNYKTTPPMLDSDGSFFLYSKLTVDKSRWQQGNVFSCSVMHEALHNHYTQKKLSLSPGK light: not shown
< 5 % of the level induced by the positive control mixture | IgG4-11B8-E345R-S440K (antibody) heavy: EVQLVQSGGGLVHPGGSLRLSCTGSGFTFSYHAMHWVRQAPGKGLEWVSIIGTGGVTYYADSVKGRFTISRDNVKNSLYLQMNSLRAEDMAVYYCARDYYGAGSFYDGLYGMDVWGQGTTVTVSSASTKGPSVFPLAPCSRSTSESTAALGCLVKDYFPEPVTVSWNSGALTSGVHTFPAVLQSSGLYSLSSVVTVPSSSLGTKTYTCNVDHKPSNTKVDKRVESKYGPPCPSCPAPEFLGGPSVFLFPPKPKDTLMISRTPEVTCVVVDVSQEDPEVQFNWYVDGVEVHNAKTKPREEQFNSTYRVVSVLTVLHQDWLNGKEYKCKVSNKGLPSSIEKTISKAKGQPRRPQVYTLPPSQEEMTKNQVSLTCLVKGFYPSDIAVEWESNGQPENNYKTTPPVLDSDGSFFLYSRLTVDKSRWQEGNVFSCSVMHEALHNHYTQKKLSLSLGK light: not shown
< 5 % of the level induced by the positive control mixture | IgG4-11B8-E345R-S440K-N297A (antibody) heavy: EVQLVQSGGGLVHPGGSLRLSCTGSGFTFSYHAMHWVRQAPGKGLEWVSIIGTGGVTYYADSVKGRFTISRDNVKNSLYLQMNSLRAEDMAVYYCARDYYGAGSFYDGLYGMDVWGQGTTVTVSSASTKGPSVFPLAPCSRSTSESTAALGCLVKDYFPEPVTVSWNSGALTSGVHTFPAVLQSSGLYSLSSVVTVPSSSLGTKTYTCNVDHKPSNTKVDKRVESKYGPPCPSCPAPEFLGGPSVFLFPPKPKDTLMISRTPEVTCVVVDVSQEDPEVQFNWYVDGVEVHNAKTKPREEQFASTYRVVSVLTVLHQDWLNGKEYKCKVSNKGLPSSIEKTISKAKGQPRRPQVYTLPPSQEEMTKNQVSLTCLVKGFYPSDIAVEWESNGQPENNYKTTPPVLDSDGSFFLYSRLTVDKSRWQEGNVFSCSVMHEALHNHYTQKKLSLSLGK light: not shown
